Measurements taken from paper PMC5566574 (Frontiers in Immunology, 2017).
Each block holds one binder with its values, some of them ahead of it.

Key:
[1] = molecular target: T1, cynomolgus monkey (cyno) IL23 (Macaca fascicularis (cynomolgus monkey), UniProt H6WS56;H6WS55); assay: SPR; species cross-reactivity of the monovalent nanobodies on cyno IL23 and mouse IL23; off-rates compared; set-up not described
T1 construct: interleukin 23 subunit p19, cynomolgus monkey; construct not described; p40 subunit, cynomolgus monkey; source: produced at Ablynx, Ghent/Zwijnaarde, Belgium

mouse (m) IL23 = molecular target: T2, mouse (m) IL23 (Mus musculus (Mouse)., UniProt Q9EQ14;P43432); assay: as above
T2 construct: interleukin 23 subunit p19, mouse; p40 subunit, mouse; source: bought: R&D Systems Inc

[2] = molecular target: T3, p40 subunit of human interleukin 23 (human, UniProt P29460, saccharidic chain of the complex type at Asn 200 (GlcNAc2-Man3 core seen in the crystal)); assay: crystal structure; hIL23 with nanobodies 37D5, 124C4 and 22E11; sitting drop, 277 K, 16.5% PEG 20 K, 0.1 M MES pH 5.9; two complexes per asymmetric unit; PDB 4GRW; conditions: both partners purified
T3 construct: p40 subunit shared by IL12 and IL23, human; never handled apart from p19; also called IL12-shared p40 subunit; source: bought as part of hIL23 (R&D Systems Inc. or eBioscience)

human interleukin 23 [3] = molecular target: T4, human interleukin 23 (Homo sapiens, UniProt Q9NPF7;P29460, saccharidic chain of the complex type at Asn 200 (GlcNAc2-Man3 core seen in the crystal)); assay: SPR; Biacore T100; hIL23 covalently bound to a CM5 chip via amine coupling; purified nanobodies 1 to 300 nM injected for 4 min at 45 µl/min; conditions: both partners purified
T4 construct: interleukin 23 subunit p19, human; p40 subunit shared by IL12 and IL23, human; Heterodimer with a disulfide bridge between Cys 54 (p19) and Cys177 (p40); the splenocyte assay used eBioscience hIL23; also called hIL23; IL23; source: bought: R&D Systems Inc. and eBioscience

human interleukin 12 = human interleukin 12 (human, UniProt P29459;P29460); assay: cell-based or functional assay
[4] = molecular target: T5, biotinylated human interleukin 12 (human, UniProt P29459;P29460, biotin (Sulfo-NHS-LC-Biotin; sites not stated) | biotin (Sulfo-NHS-LC-Biotin; sites not stated)); assay: AlphaScreen or HTRF; serial dilutions of purified nanobody (250 nM to 1 pM) preincubated with 500 pM biotinylated hIL23 or 3 nM biotinylated hIL12; IL23R or IL12Rβ1 on acceptor beads via an antihuman Fc monoclonal antibody; streptavidin donor beads; 1 h at room temperature; conditions: both partners purified
T5 construct: p35 subunit of IL12, human; p40 subunit shared by IL12 and IL23, human; also called biotinylated hIL12; source: bought: R&D Systems Inc; biotinylated using Sulfo-NHS-LC-Biotin (Pierce)

human interleukin 23 [5] = molecular target: T4, human interleukin 23; assay: cell-based or functional assay
[6] = molecular target: T6, biotinylated human interleukin 23 (human, UniProt Q9NPF7;P29460, biotin (Sulfo-NHS-LC-Biotin; sites not stated) | biotin (Sulfo-NHS-LC-Biotin; sites not stated)); assay: AlphaScreen or HTRF; serial dilutions of purified nanobody (250 nM to 1 pM) preincubated with 500 pM biotinylated hIL23 or 3 nM biotinylated hIL12; IL23R or IL12Rβ1 on acceptor beads via an antihuman Fc monoclonal antibody; streptavidin donor beads; 1 h at room temperature; conditions: both partners purified
T6 construct: interleukin 23 subunit p19, human; p40 subunit shared by IL12 and IL23, human; also called biotinylated hIL23; source: bought: eBioscience; biotinylated using Sulfo-NHS-LC-Biotin (Pierce)

[7] = molecular target: T7, p40 subunit of human interleukin 23 (human, UniProt P29460 23-328, saccharidic chain of the complex type at Asn 200 (GlcNAc2-Man3 core seen in the crystal)); assay: crystal structure; hIL23 with nanobodies 37D5, 124C4 and 22E11; sitting drop, 277 K, 16.5% PEG 20 K, 0.1 M MES pH 5.9; two complexes per asymmetric unit; PDB 4GRW; conditions: both partners purified
T7 construct: p40 subunit shared by IL12 and IL23, human; never handled apart from p19; also called IL12-shared p40 subunit; source: bought as part of hIL23 (R&D Systems Inc. or eBioscience)
T7 sequence (looked up): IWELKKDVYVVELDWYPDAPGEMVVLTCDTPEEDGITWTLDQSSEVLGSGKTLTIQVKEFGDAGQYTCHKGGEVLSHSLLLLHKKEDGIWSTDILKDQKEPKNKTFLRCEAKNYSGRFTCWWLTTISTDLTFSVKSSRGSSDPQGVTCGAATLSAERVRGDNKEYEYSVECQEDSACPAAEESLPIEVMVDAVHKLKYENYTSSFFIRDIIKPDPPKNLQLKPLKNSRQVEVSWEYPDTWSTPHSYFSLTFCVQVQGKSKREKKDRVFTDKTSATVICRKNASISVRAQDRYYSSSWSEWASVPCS

[8] = molecular target: T8, biotinylated human interleukin 23 (human, UniProt Q9NPF7 20-189; P29460 23-328, biotin (Sulfo-NHS-LC-Biotin; sites not stated) | biotin (Sulfo-NHS-LC-Biotin; sites not stated)); assay: AlphaScreen or HTRF; serial dilutions of purified nanobody (250 nM to 1 pM) preincubated with 500 pM biotinylated hIL23 or 3 nM biotinylated hIL12; IL23R or IL12Rβ1 on acceptor beads via an antihuman Fc monoclonal antibody; streptavidin donor beads; 1 h at room temperature; conditions: both partners purified
T8 construct: interleukin 23 subunit p19, human; p40 subunit shared by IL12 and IL23, human; also called biotinylated hIL23; source: bought: eBioscience; biotinylated using Sulfo-NHS-LC-Biotin (Pierce)
T8 sequence (looked up) 1: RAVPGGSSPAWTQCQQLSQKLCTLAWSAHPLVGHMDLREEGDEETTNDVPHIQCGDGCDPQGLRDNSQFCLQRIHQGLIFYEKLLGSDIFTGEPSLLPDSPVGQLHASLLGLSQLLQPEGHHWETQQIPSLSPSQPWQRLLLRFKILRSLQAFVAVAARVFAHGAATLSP
T8 sequence (looked up) 2: T7 sequence (looked up)

IL12Rβ-Fc chimera = molecular target: T9, IL12Rβ-Fc chimera (human, UniProt P42701 24-545); assay: as above; conditions: both partners purified
T9 construct: interleukin 12 receptor subunit beta 1, human; The materials name it 'IL12Rβ-Fc chimera'; the assay and results name IL12Rβ1 / hIL12Rβ1; also called IL12Rβ1; hIL12Rβ1; source: bought: R&D Systems Inc

T2 sequence (Q9EQ14 22-196, chain 1 of 2): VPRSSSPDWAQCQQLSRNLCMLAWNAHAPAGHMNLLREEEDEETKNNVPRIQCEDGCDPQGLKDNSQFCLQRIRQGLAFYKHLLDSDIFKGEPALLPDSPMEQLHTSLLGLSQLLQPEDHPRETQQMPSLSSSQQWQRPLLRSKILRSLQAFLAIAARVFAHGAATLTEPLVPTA
T2 sequence (P43432 23-335, chain 2 of 2): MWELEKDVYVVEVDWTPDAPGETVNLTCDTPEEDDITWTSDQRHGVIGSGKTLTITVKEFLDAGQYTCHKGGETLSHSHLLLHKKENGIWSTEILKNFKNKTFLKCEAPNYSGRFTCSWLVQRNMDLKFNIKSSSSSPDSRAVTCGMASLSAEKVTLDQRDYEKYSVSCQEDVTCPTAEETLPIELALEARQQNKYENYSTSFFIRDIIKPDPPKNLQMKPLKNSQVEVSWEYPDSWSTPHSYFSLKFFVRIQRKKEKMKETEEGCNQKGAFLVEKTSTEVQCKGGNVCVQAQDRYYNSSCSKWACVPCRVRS

IC50 of block of hIL12-dependent proliferation of PHA blasts (4 pM hIL12 for stimulation; data not shown) (human interleukin 12): 95 pM
binding result [1]: binds
binding result (mouse (m) IL23): no binding
IC50 [4]: 1.3 nM
binding result [2]: binds
IC50 of inhibition of mIL22 secretion by mouse splenocytes stimulated with 19 pM hIL23 (human interleukin 23 [5]): 186 pM
koff (human interleukin 23 [3]): 0.00023 s⁻¹
B2: nanobody 22E11 (VHH)
VHH: EVQLVESGGGLVQAGGSLRLSCAASGRTFSWSAVGWFRQAPGKEREFVAAIRWSGGSPYYADSVKDRFTISRDNAKNTVYLQMNSLRPEDTAVYLCGETSLFPTSRGSHYDTWGQGTQVTVSS
notes: nanobody 22E11 (llama VHH); both add C-terminal c-myc and hexa-histidine tags; also called p40+ nanobody 22E11; source: E. coli TG1, periplasmic extract (screening); purified (Ni-NTA; Superdex75 for crystallization); not shown: c-myc, C-terminal, kept

binding result [8]: binds
B5: hIL23 receptor (R)-fragment crystallizable region (Fc) (Fc fusion, human, UniProt Q5VWK5 24-355, looked up)
chain: GITNINCSGHIWVEPATIFKMGMNISIYCQAAIKNCQPRKLHFYKNGIKERFQITRINKTTARLWYKNFLEPHASMYCTAECPKHFQETLICGKDISSGYPPDIPDEVTCVIYEYSGNMTCTWNAGKLTYIDTKYVVHVKSLETEEEQQYLTSSYINISTDSLQGGKKYLVWVQAANALGMEESKQLQIHLDDIVIPSAAVISRAETINATVPKTIIYWDSQTTIEKVSCEMRYKATTNQTWNVKEFDTNFTYVQQSEFYLEPNIKYVFQVRCQETGKRYWQPWSSLFFHKTPETVPQVTSKAFQHDTWNSGLTVASISTGHLTSDNRGDIG
notes: interleukin 23 receptor, human; also called hIL23R-Fc; source: bought: R&D Systems Inc

binding result (IL12Rβ-Fc chimera): binds
B6: biotinylated human interleukin 12 (complex)
chain 1: RNLPVATPDPGMFPCLHHSQNLLRAVSNMLQKARQTLEFYPCTSEEIDHEDITKDKTSTVEACLPLELTKNESCLNSRETSFITNGSCLASRKTSFMMALCLSSIYEDLKMYQVEFKTMNAKLLMDPKRQIFLDQNMLAVIDELMQALNFNSETVPQKSSLEEPDFYKTKIKLCILLHAFRIRAVTIDRVMSYLNAS
chain 2: T7 sequence (looked up)
modifications: biotin (Sulfo-NHS-LC-Biotin; sites not stated) | biotin (Sulfo-NHS-LC-Biotin; sites not stated)
notes: p35 subunit of IL12, human; p40 subunit shared by IL12 and IL23, human; also called biotinylated hIL12; source: bought: R&D Systems Inc; biotinylated using Sulfo-NHS-LC-Biotin (Pierce)

Further lines, the binder ahead of its results:

B1: nanobody 124C4 (VHH)
VHH: EVQLVESGGGLVQPGGSLRLSCAASGFTLDDYAIAWFRQAPGKEREGVSGIDSGDGSAYYADSVKGRFTISSDNAKNTVYLQMNSLRPEDTAVYYCARVRTGWGLNAPDYAMDYWGKGTLVTVSS
notes: nanobody 124C4 (llama VHH); both add C-terminal c-myc and hexa-histidine tags; also called p19− nanobody 124C4; source: E. coli TG1, periplasmic extract (screening); purified (Ni-NTA; Superdex75 for crystallization); not shown: c-myc, C-terminal, kept
binding result [1]: binds
binding result (mouse (m) IL23): binds
binding result [2]: binds
Kd (human interleukin 23 [3]): 3.3 nM
koff (human interleukin 23 [3]): 0.00033 s⁻¹
kon (human interleukin 23 [3]): 100000 M⁻¹ s⁻¹

B3: nanobody 37D5 (VHH)
VHH: EVQLVESGGGLVQPGGSLRLSCAASGFTLDYLAIGWFRQAPGKEREGVSCVSSSGQYTYYADSVKGRFTISRDNAESTVYLQMNSLKPEDTAVYYCATDPECYRVRGYYNGEYDYWGQGTQVTVSS
notes: nanobody 37D5 (llama VHH); both add C-terminal c-myc and hexa-histidine tags; also called p19+ nanobody 37D5; source: E. coli TG1, periplasmic extract (screening); purified (Ni-NTA; Superdex75 for crystallization); not shown: c-myc, C-terminal, kept
binding result [1]: binds
binding result (mouse (m) IL23): no binding
IC50 [6]: 0.11 nM
binding result [2]: binds
IC50 of inhibition of mIL22 secretion by mouse splenocytes stimulated with 19 pM hIL23; blocks IL23/IL23R (human interleukin 23 [5]): 19 pM
Kd (human interleukin 23 [3]): 0.6 nM
koff (human interleukin 23 [3]): 0.00018 s⁻¹
kon (human interleukin 23 [3]): 320000 M⁻¹ s⁻¹

B4: p19 subunit of human interleukin 23 (natural protein, UniProt Q9NPF7 20-189, looked up)
chain: T8 sequence (looked up) 1
notes: interleukin 23 subunit p19, human; never handled apart from p40; also called IL23p19; hIL23 p19 subunit; source: bought as part of hIL23 (R&D Systems Inc. or eBioscience)
binding result [7]: binds
